Laboratory results taken from the supplement of paper PMC9170038.

Columns and labels:
MS2 coat protein [1] = assay: apparent KD of MS2 coat protein; designed switch direction (-1 OFF switch, 1 ON switch): -1; higher = weaker reporter binding; details: Eterna round: R98
Description: (§1)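 RNA-MaP: designed FMN/MS2 RNA switches (84 nt design region) are transcribed on-chip within common flanks and titrated with SNAP-549-labelled MS2 coat protein (about 1-3000 nM) in 100 mM Tris pH 7.5, 80 mM KCl, 4 mM MgCl2, without or with 200 uM FMN. Median apparent KD per design; activation ratio = KD,OFF / KD,ON.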

MS2 coat protein [2] = assay: apparent KD of MS2 coat protein; designed switch direction (-1 OFF switch, 1 ON switch): 1; higher = weaker reporter binding; details: Eterna round: R98
Description: as §1

AUGACAGGCAAAGCGCAACGGCGAACAUGAGGAUCACCCAUGUAGGAUAUGCUACACAAAGUGUAGCAGAAGGACAUACGACGA [Ex NG2 #82]
apparent KD of MS2 coat protein (MS2 coat protein [1]; input ligand: FMN 200 uM): 88.6 nM
apparent KD of MS2 coat protein (MS2 coat protein [1]; input ligand: none): 41.2 nM

AGCUGUGGCCGAGGAUAUCUAUCUUCAAUAACCGAAAUAUAAUCGGACAUGAGGAUCACCCAUGUAGAGAAGGCGGUCUCAGCA [Eli xng2 2.033]
apparent KD of MS2 coat protein (MS2 coat protein [1]; input ligand: FMN 200 uM): 100 nM
apparent KD of MS2 coat protein (MS2 coat protein [1]; input ligand: none): 37.7 nM

UUCUGUGCCCAAAGUUUAAGCACAUGAGGAUCACCCAUGUGAAAGGAUAUGUGGCGUGUAACGUUAUAGAAGGUUCACAAUAAA [Edorcetila]
apparent KD of MS2 coat protein (MS2 coat protein [1]; input ligand: FMN 200 uM): 74.9 nM
apparent KD of MS2 coat protein (MS2 coat protein [1]; input ligand: none): 33.1 nM

CACUCAAGGUGAGGAUAUGCACAGGAUCACCGUGUAGAAGGCAUCAGGUAGAAGGUGCAGAGGAUCACCCUGUAAGGAUAUAUC [pwkr2 ssNG1 DX.11]
apparent KD of MS2 coat protein (MS2 coat protein [2]; input ligand: FMN 200 uM): 334 nM
apparent KD of MS2 coat protein (MS2 coat protein [2]; input ligand: none): 867 nM

AUGCUUCACACAGGAUAUACAUGAGGAUCACCCAUGUGUGGGCGGUAGCUGACACGAGCUACCGGGUAGAAGGGUGUGAAGCAU [xclu_NG2_cac21]
apparent KD of MS2 coat protein (MS2 coat protein [1]; input ligand: FMN 200 uM): 127 nM
apparent KD of MS2 coat protein (MS2 coat protein [1]; input ligand: none): 32.6 nM

GCACUGGAUGUAGGAUAUCAGGACGAUAAGUCCUGAGAAGGACAUGAGGAUCACCCAUGUGAAUAAAACCAGUGCAAUAAUAUA [Denovo Exng1 22]
apparent KD of MS2 coat protein (MS2 coat protein [1]; input ligand: FMN 200 uM): 30.9 nM
apparent KD of MS2 coat protein (MS2 coat protein [1]; input ligand: none): 13.4 nM

UGGACCAAUACAGGAUAUGGUGACGCACAUGAGGAUCACCCAUGUCCGCAGCGUGCUCAGCACGCCCAGAAGGGUAUUGAUUCA [Tereriesti]
apparent KD of MS2 coat protein (MS2 coat protein [2]; input ligand: FMN 200 uM): 74.5 nM
apparent KD of MS2 coat protein (MS2 coat protein [2]; input ligand: none): 671 nM

CCAGAGAUAUGAGGAUAUCGAGUGGAUAACACUCGAGAAGGCAUGUGAAAACAUGAGGAUCACCCAUGUGAUCAAUACUCUGGA [Same State NG1 - WT Aptamer 2D]
apparent KD of MS2 coat protein (MS2 coat protein [2]; input ligand: FMN 200 uM): 27.4 nM
apparent KD of MS2 coat protein (MS2 coat protein [2]; input ligand: none): 170 nM

AAUAUAAAAGAGCUGGAUAACUCAACAUGAGGAUCACCCAUGUAGGAUAUCAGCACGAUAAGUGCUGAGAAGGACAACCAGCUC [Denovo 69]
apparent KD of MS2 coat protein (MS2 coat protein [1]; input ligand: FMN 200 uM): 16.2 nM
apparent KD of MS2 coat protein (MS2 coat protein [1]; input ligand: none): 14.8 nM

UCAUACAUGAGGAUCUCCCAUGACAUGAGGAUCACCCAUGUGCAGGAUAUACGUGAUAUAAUAUAGUAGAAGGGCAGACUAUAU [LRO008_Exclusion NG 3]
apparent KD of MS2 coat protein (MS2 coat protein [1]; input ligand: FMN 200 uM): 192 nM
apparent KD of MS2 coat protein (MS2 coat protein [1]; input ligand: none): 157 nM

UGACGGCACACAGGAUAUAGUGCACAAAGUGUACUAGAAGGGUGAGCACUCGUCCGGGCACAUGAGGAUCACCCAUGUCGUCGA [Onusar]
apparent KD of MS2 coat protein (MS2 coat protein [2]; input ligand: FMN 200 uM): 1040 nM
apparent KD of MS2 coat protein (MS2 coat protein [2]; input ligand: none): 133 nM

GUCGAAUUCUUAGGAUAUCGAGUGGAUAACACUCGAGAAGGAAGAUAUACCUGAGGAUCACCCAGGUUAAACUGAACGACAAUA [Same State NG1 - A3C, U17G Submission 7D]
apparent KD of MS2 coat protein (MS2 coat protein [2]; input ligand: FMN 200 uM): 17.5 nM
apparent KD of MS2 coat protein (MS2 coat protein [2]; input ligand: none): 18.5 nM

CCGGAAACGGGUAGCUGACAUGAGGAUCACCCAUGUGAAUCUGAGGAUAUGGAUGGUAAUUCCAUCCAGAAGGCAGUCAGCUAC [Mat - Same State NG 3 - JL Mod - D82]
apparent KD of MS2 coat protein (MS2 coat protein [2]; input ligand: FMN 200 uM): 59.1 nM
apparent KD of MS2 coat protein (MS2 coat protein [2]; input ligand: none): 551 nM

CUAGCAUACCGAGGAUAUUCAUAUAAUAAAUAAACAUGAGGAUCACCCAUGUGGCGAAAGCCUAGGGAGAAGGCGGAAUGCUAG [salish99_SSNG2_r2_004]
apparent KD of MS2 coat protein (MS2 coat protein [2]; input ligand: FMN 200 uM): 20.1 nM
apparent KD of MS2 coat protein (MS2 coat protein [2]; input ligand: none): 212 nM

CAAUUAUGGUGAGGAUAUGCACAGGAUCACCGUGUAGAAGGCAUCAGGUAGAAGGUGCAGAGGAUCACCCUGUAAGGAUAUAUC [pwkr2 ssNG1 DX.17]
apparent KD of MS2 coat protein (MS2 coat protein [2]; input ligand: FMN 200 uM): 109 nM
apparent KD of MS2 coat protein (MS2 coat protein [2]; input ligand: none): 666 nM

CCGGAAACGGGUAGCUGUACAUGAGGAUCACCCAUGUGAUCAUAGGAUAUGGUUCCUAAUUGGAACCAGAAGGAUGUCAGCUAC [Mat - Same State NG 3 - JL Mod - D86]
apparent KD of MS2 coat protein (MS2 coat protein [2]; input ligand: FMN 200 uM): 434 nM
apparent KD of MS2 coat protein (MS2 coat protein [2]; input ligand: none): 32.6 nM

CCGGUGUAUGCAGGAUAUGAGAGGAGGUGACCAUCAGAAGGGCAAGCCCACAUGAGGAUCACCCAUGUACUAAGAGACAAGGCC [Tienlaonso]
apparent KD of MS2 coat protein (MS2 coat protein [2]; input ligand: FMN 200 uM): 50.7 nM
apparent KD of MS2 coat protein (MS2 coat protein [2]; input ligand: none): 25.5 nM

UUUACAUGAGGAUCACCCAUGUAUGUCACCCAUGUGUGUAAUCAGGAUAUGAAAUAAAUAAUAAAUUAGAAGGGAUAACAUGAG [Attempt 1]
apparent KD of MS2 coat protein (MS2 coat protein [2]; input ligand: FMN 200 uM): 72.9 nM
apparent KD of MS2 coat protein (MS2 coat protein [2]; input ligand: none): 60.3 nM
